Results published in paper PMC3158066, “An Inserted α/β Subdomain Shapes the Catalytic Pocket of Lactobacillus johnsonii Cinnamoyl Esterase” (PLoS ONE, 2011).

B1: apo-LJ0536 (wild type), as crystallised after treatment with subtilisin (enzyme, Lactobacillus johnsonii N6.2, UniProt D3YEX6 1-245, looked up)
chain: MATITLERDGLQLVGTREEPFGEIYDMAIIFHGFTANRNTSLLREIANSLRDENIASVRFDFNGHGDSDGKFENMTVLNEIEDANAILNYVKTDPHVRNIYLVGHSQGGVVASMLAGLYPDLIKKVVLLAPAATLKGDALEGNTQGVTYNPDHIPDRLPFKDLTLGGFYLRIAQQLPIYEVSAQFTKPVCLIHGTDDTVVSPNASKKYDQIYQNSTLHLIEGADHCFSDSYQKNAVNLTTDFLQN
notes: LJ0536, serine cinnamoyl esterase, Lactobacillus johnsonii N6.2; residues 1-245 seen in the map, four C-terminal residues lost to the protease, plus five residues of the expression tag; Crystallised with the His6 tag uncleaved, but only five residues of the expression tag are seen after the protease treatment; also called apo WT LJ0536; not shown: His6, N-terminal, kept
B2: LJ0536 (cinnamoyl esterase) (Lactobacillus johnsonii; H225A) (protein)
chain: MATITLERDGLQLVGTREEPFGEIYDMAIIFHGFTANRNTSLLREIANSLRDENIASVRFDFNGHGDSDGKFENMTVLNEIEDANAILNYVKTDPHVRNIYLVGHSQGGVVASMLAGLYPDLIKKVVLLAPAATLKGDALEGNTQGVTYNPDHIPDRLPFKDLTLGGFYLRIAQQLPIYEVSAQFTKPVCLIHGTDDTVVSPNASKKYDQIYQNSTLHLIEGADACFSDSYQKNAVNLTTDFLQNNNAF
notes: full length in p15TV-L, E. coli BL21(DE3); His6-tag removed by TEV for kinetics; crystals: tag uncleaved, protease-treated (subtilisin or V8), residues 1-245 modelled, four C-terminal residues lost
B3: LJ0536, cinnamoyl esterase of Lactobacillus johnsonii N6.2 (wild type) (enzyme, UniProt D3YEX6 1-249, looked up)
chain: MATITLERDGLQLVGTREEPFGEIYDMAIIFHGFTANRNTSLLREIANSLRDENIASVRFDFNGHGDSDGKFENMTVLNEIEDANAILNYVKTDPHVRNIYLVGHSQGGVVASMLAGLYPDLIKKVVLLAPAATLKGDALEGNTQGVTYNPDHIPDRLPFKDLTLGGFYLRIAQQLPIYEVSAQFTKPVCLIHGTDDTVVSPNASKKYDQIYQNSTLHLIEGADHCFSDSYQKNAVNLTTDFLQNNNAF
notes: LJ0536, serine cinnamoyl esterase, Lactobacillus johnsonii N6.2; the crystallised fragment 1-245 is said to lack four C-terminal residues of the full-length protein; The protein as used for gel filtration; also called WT
B4: LJ0536 (cinnamoyl esterase) (Lactobacillus johnsonii; H32A) (protein)
chain: MATITLERDGLQLVGTREEPFGEIYDMAIIFAGFTANRNTSLLREIANSLRDENIASVRFDFNGHGDSDGKFENMTVLNEIEDANAILNYVKTDPHVRNIYLVGHSQGGVVASMLAGLYPDLIKKVVLLAPAATLKGDALEGNTQGVTYNPDHIPDRLPFKDLTLGGFYLRIAQQLPIYEVSAQFTKPVCLIHGTDDTVVSPNASKKYDQIYQNSTLHLIEGADHCFSDSYQKNAVNLTTDFLQNNNAF
notes: as for B2
B5: LJ0536 (cinnamoyl esterase) (Lactobacillus johnsonii; Q145A) (protein)
chain: MATITLERDGLQLVGTREEPFGEIYDMAIIFHGFTANRNTSLLREIANSLRDENIASVRFDFNGHGDSDGKFENMTVLNEIEDANAILNYVKTDPHVRNIYLVGHSQGGVVASMLAGLYPDLIKKVVLLAPAATLKGDALEGNTAGVTYNPDHIPDRLPFKDLTLGGFYLRIAQQLPIYEVSAQFTKPVCLIHGTDDTVVSPNASKKYDQIYQNSTLHLIEGADHCFSDSYQKNAVNLTTDFLQNNNAF
notes: as for B2
B6: LJ0536 (cinnamoyl esterase) (Lactobacillus johnsonii; S68A) (protein)
chain: MATITLERDGLQLVGTREEPFGEIYDMAIIFHGFTANRNTSLLREIANSLRDENIASVRFDFNGHGDADGKFENMTVLNEIEDANAILNYVKTDPHVRNIYLVGHSQGGVVASMLAGLYPDLIKKVVLLAPAATLKGDALEGNTQGVTYNPDHIPDRLPFKDLTLGGFYLRIAQQLPIYEVSAQFTKPVCLIHGTDDTVVSPNASKKYDQIYQNSTLHLIEGADHCFSDSYQKNAVNLTTDFLQNNNAF
notes: as for B2
B7: LJ0536 (cinnamoyl esterase) (Lactobacillus johnsonii; D138A) (protein)
chain: MATITLERDGLQLVGTREEPFGEIYDMAIIFHGFTANRNTSLLREIANSLRDENIASVRFDFNGHGDSDGKFENMTVLNEIEDANAILNYVKTDPHVRNIYLVGHSQGGVVASMLAGLYPDLIKKVVLLAPAATLKGAALEGNTQGVTYNPDHIPDRLPFKDLTLGGFYLRIAQQLPIYEVSAQFTKPVCLIHGTDDTVVSPNASKKYDQIYQNSTLHLIEGADHCFSDSYQKNAVNLTTDFLQNNNAF
notes: as for B2
B8: LJ0536 Ser106Ala mutant, as crystallised after treatment with V8 protease (enzyme, Lactobacillus johnsonii N6.2)
chain: MATITLERDGLQLVGTREEPFGEIYDMAIIFHGFTANRNTSLLREIANSLRDENIASVRFDFNGHGDSDGKFENMTVLNEIEDANAILNYVKTDPHVRNIYLVGHAQGGVVASMLAGLYPDLIKKVVLLAPAATLKGDALEGNTQGVTYNPDHIPDRLPFKDLTLGGFYLRIAQQLPIYEVSAQFTKPVCLIHGTDDTVVSPNASKKYDQIYQNSTLHLIEGADHCFSDSYQKNAVNLTTDFLQNNNAF
notes: made from the p15TV-L wild-type clone; also called LJ0536 S106A; S106A; not shown: His6, N-terminal, kept
B9: LJ0536 (cinnamoyl esterase) (Lactobacillus johnsonii; DEL147-173) (protein)
chain: MATITLERDGLQLVGTREEPFGEIYDMAIIFHGFTANRNTSLLREIANSLRDENIASVRFDFNGHGDSDGKFENMTVLNEIEDANAILNYVKTDPHVRNIYLVGHSQGGVVASMLAGLYPDLIKKVVLLAPAATLKGDALEGNTQGQQLPIYEVSAQFTKPVCLIHGTDDTVVSPNASKKYDQIYQNSTLHLIEGADHCFSDSYQKNAVNLTTDFLQNNNAF
notes: as for B2

How the values were obtained:
[1] = target: T1, LJ0536 (cinnamoyl esterase) (Lactobacillus johnsonii, UniProt D3YEX6, S106A); experiment: X-ray crystallography, co-crystal; assay type: binding; conditions: 0.1 M Tris pH 8.5, active site
T1 construct: gene FEE39_08260; full length in p15TV-L, E. coli BL21(DE3); His6-tag removed by TEV for kinetics; crystals: tag uncleaved, protease-treated (subtilisin or V8), residues 1-245 modelled, four C-terminal residues lost

[2] = target: the molecule itself; experiment: crystal structure; sitting drop, protein at 15 mg/mL with His6-tag uncleaved, pre-treated with subtilisin (apo) or V8 protease (S106A); S106A co-crystallised with ethyl ferulate
purified protein = substrate: CCCC(=O)Oc1ccc([N+](=O)[O-])cc1; experiment: purified protein; assay type: biochemical, Lactobacillus johnsonii; conditions: HEPES pH 7.80, 25 °C (typical assay; saturation conditions as in ref 14), pH 7.8
[3] = target: the molecule itself; experiment: SEC; gel filtration on Superose 12 10/300GL (FPLC), mobile phase 10 mM HEPES with 150 mM NaCl, calibrated with molecular weight standards
[4] = deletion made by ligation at a SmaI junction

Row | Molecule | Km (purified protein) [µM] | Vmax (purified protein) [µmol/min/mg] | kcat (purified protein) [s⁻¹] | kcat/Km (purified protein) [M⁻¹ s⁻¹] | further results
1 | COc1cc(/C=C/C(=O)O)ccc1O [ferulic acid] |  |  |  |  | X-ray crystallography, co-crystal ([1]; 5 mM ligand, 1.75 Å): co-crystallized this mutant with ferulic acid, ethyl ferulate, or chlorogenic acid
2 | CCOC(=O)/C=C/c1ccc(O)c(OC)c1 [ethyl ferulate] |  |  |  |  | X-ray crystallography, co-crystal ([1]; Form I (5 mM ligand, 1.58 Å, 3PFB) and Form II (25 mM ligand, 1.82 Å, 3QM1)): The Ser106Ala-ethyl ferulate complex crystallized in two forms
3 | B1 |  |  |  |  | binding result [2]: binds
4 | B2 | 190 ± 40 | 0.65 | 0.3 | 1570 | 
5 | B3 | 160 ± 20 | 3.34 | 1.53 | 9590 | binding result [3]: binds
6 | B4 | 130 ± 80 | 0.09 | 0.04 | 318 | 
7 | B5 | 290 ± 40 | 2.05 | 0.94 | 3250 | 
8 | B6 | 80 ± 20 | 0.47 | 0.22 |  | 
9 | B7 | 220 ± 30 | 1.23 | 0.57 | 2570 | 
10 | B8 |  |  |  |  | binding result [2]: binds
11 | B9 |  |  |  |  | Km (purified protein; [4]): 650 ± 120 µM; Vmax (purified protein; [4]): 0.28 µmol/min/mg; kcat (purified protein; [4]): 0.13 s⁻¹; kcat/Km (purified protein; [4]): 198 M⁻¹ s⁻¹
